Reference: patent US8236753 (BRIGHAM AND WOMEN S HOSPITAL, dated 2012)

B1: wild-type RAP-D3 (third domain of the receptor-associated protein, residues 216-323) (ligand, human)
chain: GAEFEEPRVIDLWDLAQSANLTDKELEAFREELKHFEAKIEKHNHYQKQLEIAHEKLRHAESVGDGERVSRSREKHALLEGRTKELGYTVKKHLQDLSGRISRARHNEL
notes: range 216-323; Expressed in E. coli as a GST fusion, released by TEV protease, monomer isolated by size exclusion; The range 216-323 counts on the mature RAP protein, not on the precursor; also called RAP-D3 WT; RAPD3_WT
B2: LA3-4 module pair of the LDLR (LDL receptor type-A repeats 3 and 4) (receptor)
chain: not shown
notes: domain: LA3-4 module pair; also called two-repeat fragment of the LDL receptor; LA3-4 repeat pair

Key:
[1] = molecular target: B2; test: ITC, RAP-D3 titrated into LA3-4, 20 mM HEPES pH 7.3, 5 mM CaCl2, 25 C, 50 mM NaCl; design: ΔH: unit not given here
Protocol: (§1) RAP-D3 titrations were performed in 20 mM HEPES, pH 7.3, 50-150 mM NaCl, 5 mM CaCl_2 at 25° C. using a VP-ITC calorimeter (MicroCal Inc., Northampton, Mass.) in a 1.3 mL reaction vessel. A RAP-D3 stock solution (132-178 μM) was added in 6-8 μL increments to LA3-4 (20-25 μM). Calorim-

[2] = molecular target: B2; test: ITC, RAP-D3 titrated into LA3-4, 20 mM HEPES pH 7.3, 5 mM CaCl2, 25 C, 150 mM NaCl; design: ΔH: unit not given here
Protocol: as §1

[3] = molecular target: B1; test: ITC, RAP-D3 titrated into LA3-4, 20 mM HEPES pH 7.3, 5 mM CaCl2, 25 C, 50 mM NaCl; design: ΔH: unit not given here
Protocol: as §1

[4] = molecular target: B1; test: ITC, RAP-D3 titrated into LA3-4, 20 mM HEPES pH 7.3, 5 mM CaCl2, 25 C, 150 mM NaCl; design: ΔH: unit not given here
Protocol: as §1

[5] = molecular target: B2; test: ITC at neutral pH
Protocol: as §1

[6] = molecular target: B2; test: ITC, RAP-D3 titrated into LA3-4, 20 mM HEPES pH 7.3, 5 mM CaCl2, 25 C, 100 mM NaCl; design: ΔH: unit not given here
Protocol: as §1

[7] = molecular target: B2; test: ITC, RAP-D3 titrated into LA3-4, 20 mM HEPES pH 7.3, 5 mM CaCl2, 25 C, 100 mM NaCl; 100 mM NaCl
Protocol: as §1

Binder | ΔH [1] | fold difference in affinity against wild-type RAP-D3 [5] | Kd [1] | also measured
B1 | -9.1 | – | – | ΔH [2]: -6.8
B2 | – | – | – | Kd [3]: 480 nM; Kd [4]: 1170 nM
RAP-D3 [H257F/H259F] (ligand, The entry is printed as ENLYFQG followed by the 108 residues; also called RAPD3_H257, 259F; RAP-D3 H257,259F) GAEFEEPRVIDLWDLAQSANLTDKELEAFREELKHFEAKIEKFNFYQKQLEIAHEKLRHAESVGDGERVSRSREKHALLEGRTKELGYTVKKHLQDLSGRISRARHNEL | -8.6 | ≤ 2 fold | 850 nM | –
RAP-D3 [H268F/H290F] (ligand, also called RAPD3_H268, 290F) GAEFEEPRVIDLWDLAQSANLTDKELEAFREELKHFEAKIEKHNHYQKQLEIAFEKLRHAESVGDGERVSRSREKFALLEGRTKELGYTVKKHLQDLSGRISRARHNEL | -9.3 | ≤ 2 fold | 1160 nM | –
RAP-D3-quad (RAP-D3 H257F/H259F/H268F/H290F) (ligand, also called RAP-D3 Quad H:F; RAPD3_H257, 259, 268, 290F) GAEFEEPRVIDLWDLAQSANLTDKELEAFREELKHFEAKIEKFNFYQKQLEIAFEKLRHAESVGDGERVSRSREKFALLEGRTKELGYTVKKHLQDLSGRISRARHNEL | – | ≤ 2 fold | – | Kd [6]: 850 nM; ΔH [6]: -5.4; Ka [7]: 1.2e+06 M⁻¹
